In the nanobody polyreactivity screen of Harvey et al. (2022):

Assay: yeast display, Sf9 membrane polyspecificity reagent, FACS + sequencing; frameworks hold sequencing errors
Summary of the method: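 Synthetic nanobody libraries on Saccharomyces cerevisiae BJ5465 were galactose-induced for 36–48 hours, stained 1 hour at 4 °C with 10% biotinylated, detergent-solubilized Sf9 membrane reagent and enriched on streptavidin microbeads. FACS then separated cells into low and high (top ~1%) gates by anti-HA (expression) and streptavidin (reagent binding) fluorescence. Genes were colony-PCR amplified, MiSeq 2 × 250 sequenced and CDR-length filtered. A clone's polyreactivity label is that of its gate of origin.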

Row | Sequence | polyreactivity (PSR sort gate)
1 | QVQLVESGGGLDQAGGSLRLSCAASGSIFVYYAMGWYRHAPGKEMELVAAITSGTSTNYADSVKGRFTISRDNAQNTVYLQMNSLKPEDTAVYYCAADHYYTGTTYNYWGQGNQVTVSS | low polyreactivity
2 | QVQLVESGGGLVQAGGSLRLSCAPSGITFRPNAMGWYRQARGKERELVAAISSGDGTYADSVKGRFTISRDNAKNTVYLQMNSLKPEDSAVYYCNATGQSYVTSEYDYWGQGTQVTVSS | low polyreactivity
3 | QVQLVESGGGLVQAGGSLRLSCAASGRIFGTDVMGWYRQAPGKERELVARITGGGSTNYADSVKGRFTISRDNAKNTVYFQMNSLKPEDTAVYYCARDYGPYLSPENPAPMDYWGQGTQVTVSS | low polyreactivity
4 | QVQLVESGGGLVQAGGSLRLSCAASGRIFSNYAMGWYRPAPGKESELVAAISRGGGRTFYADSVTGRFTISRDNAKNTVYLQKNSLKPEDTAVYYCATRSYYVKGDYWGQATQVTVSS | high polyreactivity
5 | QVQLVESGGGLVQAGGSLRLSCAASGSTFKYYGMGWYRQAPGKERELVASISSSGTRTYYADSVKGRFTISRDNAKYTVYLQMNSLKPEDTAVYYCAADSYATYFLYDSWGQGTQVTVSS | low polyreactivity
6 | QVQLVESGGGLVQAGGSLRLSCPASGRTFQVYAMGWYRQAPGKERELVAGITRAGSTYYADSVKGRFTISRDNAKNTVYLQMISLKPEDTAVYYCAAGWKSSYYIWRYGSWGQGTQVTVSS | high polyreactivity
7 | QVQLVESGGGLVQAGGSLRLSCAASGFTFLWNAMGWYRQAPGKERELVAAINGNSGNTYYADSVKGRFTISRDNAKNTVYLQMNSLKPEDTAVYYCARRGGVRGYYGGRRSKMDYWGQGTQVTVSS | low polyreactivity
8 | QVQLVESGGGLVQAGGSLRLSCAASGITFRKYAMGWYRQAPGKERELVAGIRYSGSSTYYADSVKGRFTISRDNAKNTVYLQMNSLKPEDTAVYYCAVYGTTRYATTYDYWGQGTQVTVSS | high polyreactivity
9 | QVQLVESGGGLVQPGGSLRLSCAASGSIFRYYAMGWYRQAPGKERELVATIRSGGSTTYADSVKGRFTISRDNAKNTVYLQMNSLKPEDTAVYYCAATYGWRFTTFPSGYASDYYWGQGTQVTVSS | high polyreactivity
10 | QVQLVESGGRLVQAGGSLRLSCAASGRIFTGSNVMGWYRQAPGKEREFVAVINSGGGSTYYADSVKGRFTISRDNAKNTVYLQMNSLKPEDTAVYYCAADVGGWGYYDWVQGTQVTVSS | low polyreactivity
11 | QVPLVDSGGGLVQAGGSLRLSCAASGRSYGIYAMGWYIQAPGKERELVASITGRGGSTYYADSVKGRFTISRDNAKNTFYLQKNSLKPDDTAVYFCAARDRPYVHYSGLDYWGQGTQVTVSS | high polyreactivity
12 | QVQLVESGGGLVQAGGRLRLSCAASGSFFGGSGMGWYRQAPGKERELVAAITSGSSTYYADSVNGRFTISRDNAKNTVYLQMNSLKPEDSAVYYCAARPYPHSAYEGDYWGRGTQVTVSS | low polyreactivity
13 | QVQLVESGGGLVQAGGSLRLSCAASGSTFGNYAMGWYRQAPGKERELVAVITSAGSTYYADSVKGRFTISRDNAKNTVYLQMNSLKPEDTAVYYCNTGKHVRYYYWGQGTQVTVSS | low polyreactivity
14 | QVQLVESGGGLVQAGGSLRLSCAASGRILYPYAMGWYIQAPGKERELVAAITFIGGSTYYADSVKGRFTISRDNAKNTVYLQMNSLKPEDTAVYYCNAKPHRPSLLRWRIGNYWGQGTQVTVSS | high polyreactivity
15 | QVQLVESGGGLVQAGGSLRLSCAASGIIYKYAMGWYRQAPGKERELVAAISSGASTNYADSVKGRFTISRDNAKNTVYLQMNSLKPEDTAVYYCNVTTGASFEFDYWGQGTQVTVSS | low polyreactivity
16 | QVQLVESGGGLVQAGGSLRLSCAASGFIFYDYAMGWYRQAPGKERELVAGITDSGGSTSYADSVKGRFTISRDNAKNTVYLHMNSLKPEDTAVYYCAADNYVRAGINYDYWGQGTQVTVSS | low polyreactivity
17 | QVQLVETGGGLVQAGGSLRLSCAPSGRTLTYYAMGWYRQAPGKERELVAAIRHSAGSTYYADSVKVRFTISRDNAKNSVYLLMNSLKPEVTAVYYCAKKYYGHRYPSIYDYWGQGTQVTVSS | high polyreactivity
